Experimental data as given in the DeepSol protein solubility set.

experiment: soluble on expression in E. coli; label from the status in PepcDB or PDB records

**Q.** For “MAVRFASLGSGSDGNALLVESTDGTTSTRILLDCGFGIRETVRRLERLGCAPASLDAILVTHEHGDHIGSAYAFAAKYSVPVWTSHGTYRATASLRGADRAAVRFCRADDAFSIGDLRILPYTVPHDAREPLQFIFDDGARRLGVLTDAGMSTEYLCGHLTGLHAFVLECNHDREMLANSAYPWSLKQRIGGDFGHLANDIAAAILARVRHDGLHTVVAAHLSKQNNTPELAAAAIASALGVPAGDVPIADQEAGLGWQAVLEHHHHHH”, which “soluble on expression in E. coli” value is on record?
**A.** not soluble

**Q.** With “MKKAGKKNSDAGKTFILISSSCSSCQKAIEFFDQNKISYVVENFYKKPISDKRFKDILSLSEDGTESLFSKRADQIKATNSVSVEELSISELIKLVRERPSLLRRPIIIQYNSSGIPKRMRIGYNSSEIKVFERKLIEPKPIIQQ” as the sequence, how does the “soluble on expression in E. coli” value read?
**A.** soluble

**Q.** Which “soluble on expression in E. coli” value does the source give for “MIRLTNIKLPLDHQEHELEQAILTKLSIKAVQLIKFTVFKRGYDARKKNSIFLIYTLDVETNVDEALLATFIADTQVKETPDMAYKFVSQAPKNLKNRPVVIGMGPCGLFVGLVLAQMGFNPIVLERGQEVRQRTKDTFGFWRKKILNTESNVQFGEGGAGTFSDGKLYSQVKDPKHYSRKVLHEFVAAGAPEEILYVSKPHIGTFKLVTMVEKMRAKIFELGGEVRFNQRVDKIHFTDVEGNECTAQGIEGYQNKKVTGLTLSNGDHIETNYIALAIGHSARDTFSMLFDEDVYMKAKPFSVGFRIEHEQAVIDEARFGNNAGNEILGSADYKLVHHCSNGRSVYSFCMCPGGTVVAAASEEGRLVTNGMSQYSRLERNANSAIVVGIEPEDFITSEFASDRDYVLAGMEFQRNLEAKAFKLGGESYDAPVQLVGDFLAGRKSGEHGSVAPSYKPGVTYCDLSETLPDYAIAAIREALPAFDKKIKGFSMAEATLTAVETRTSSPIQITRDKETLQSLNAQGLYPAGEGAGYAGGILSAGIDGIKIAEAMALAITAEQEHLEHHHHHH” here?
**A.** not soluble

**Q.** For “MSLKTRYVLSCLLLGSALSVSAQKMAVKSNLLSAANGALNAGVEYAFGPKSTFDLSGSIRPWKRTEGYVNKYWLIQPEYRYWTCQKFNGSFWGAYLNGAQFNVGGKKMPFGLFPWLKEHRYAGWLTGGGISYGYHIMLNRHWNIEVSVGVGYEYIDYKKYKCPDVCAELLEKGHYHYFGPSKASLSIVYIFNEGHHHHHH”, which “soluble on expression in E. coli” value is on record?
**A.** not soluble

**Q.** For “MDNSVMLDYLAVTIKGLAPDDVIEKILILPKDKFVLNEWGINKYQRHYSFSEIKVYFNKDWQSKMGVFIELRGQGCRQYEEYMENNVNNWVTLMKRISECHSNVTRLDIANDIFDDSLSVPLIYSYCKKQLCISTAKTFDYHEKSLLENGEKVGEMVTIGVRGTQQWCVYNKLLEQKLDQELPNTPLSWTRAELRCWQEKANLLAKQIKEGRPLKEIYFEVINGHYRFVSPRDKDSNRWRRKTVKWWNDYLETQEKTVLSVKRTKPTLKRSEKWTEKQVSRTLGKLYVAKAESHGQEKADSYIQHLLELGISKLTETDETDIQQYKQEQLSSAYWGIRKDDL”, which “soluble on expression in E. coli” value is on record?
**A.** not soluble

**Q.** With “CFTPESTALLESGVRKPLGELSIGDRVLSMTANGQAVYSEVILFMDRNLEQMQNFVQLHTDGGAVLTVTPAHLVSVWQPESQKLTFVFADRIEEKNQVLVRDVETGELRPQRVVKVGSVRSKGVVAPLTREGTIVVNSVAASCYA” as the sequence, how does the “soluble on expression in E. coli” value read?
**A.** soluble

**Q.** For “MGSDKIHHHHHHMSADKYEVIIIGAGLAGLSAAYKLAKAGMEVVVVERGDYPGSKNLSGGVLYSRILDQLIPDFWEEAPIERYITNYLTTLMTPTDYVNIEYKDQELAKPPYNAVTVLRAKFDRWLAEKAEEAGAMIVTGVKVDKVLKEGGRITGITTGDEEMLADVVIAADGINSFIAQEAGLRGEIEPAHLAVGAKALIELPQQAIEERFRLEGNEGTAYAMLGDATHGVAGGGFFYTNRESLSIGVVMRLDDLVKEKVKPFEVLDDLLRHPLVAPLVKDGTMTEYGAHLTAEGGVHMVPSQLHTDGMLIVGDAAGFTINSGLVIRGMDLAIGSGMAAAEAVLEAKERGDYSAAALSSYQRKLDEGFIMKDLKLYAKAVDFMETDRLYKNYAPLANHLFGRIYNHDLSPKEHLWKSVLGSVQESGISWLDLARDGIKGVRAL”, which “soluble on expression in E. coli” value is on record?
**A.** not soluble

**Q.** Which “soluble on expression in E. coli” value does the source give for “MNRHSTTSGNLNTVFGYVDEETVSQGISASYVGSGKLVGNRLVRHTQTSLFSSANTW” here?
**A.** not soluble

**Q.** Which “soluble on expression in E. coli” value does the source give for “MGHHHHHHSHMHPWNQQVPDKESGGGSHGNAASSCSRFHYSYAGVHSESTHFSLVLLLDWAMAFILCPLTCPGECEGSTGKLECCLCLPSQWAVLTAAPHPYRWSQEAGRVGEGKIGKTGRPRPRQNSLPSLHFWSPVVMCL” here?
**A.** not soluble

**Q.** Which “soluble on expression in E. coli” value does the source give for “SRKRLSAPELRLSLTKGPGNDGASPTQSAPSSPDGSSDLEIDELETPSDSEQLDSGHEFEWEDELPRAEGLGTSETAERLGRGCMWDVTGEDGHHWRVFRMGPREQRVDMTVIEPYKKVLSHGGYHGDGLNAVILFASCYLPRSSIPNYTYVMEHLFRYMVGTLELLVAENYLLVHLSGGTSRAQVPPLSWIRQCYRTLDRRLRKNLRALVVVHATWYVKAFLALLRPFISSKFTRKIRFLDSLGELAQLISLDQVHIPEAVRQLDRDLHGSGGT” here?
**A.** soluble

**Q.** With “MAHHHHHHMRLIESRQMHEWDNAADSSLDVDHPEDAPFGQGPERQQQRDGKSNLGDQSDYGEEARTEATWLWRFGFPRTEDEKAYVASHLWSKGLRRRVAQLTDVRRRGRPGEFVIGVPEGLQHLREQRERLERERFGGVKVFPPQNA” as the sequence, how does the “soluble on expression in E. coli” value read?
**A.** not soluble

**Q.** For “MGFNNLVSLAALIEKVFPIRYTPAGIPVLDIILKHESWQEENGQQCLVQLEIPARILGRQAEEWQYRQGVYVHVEGFLAQKSRRSLMPMLRIQNIQEYKG”, which “soluble on expression in E. coli” value is on record?
**A.** not soluble

**Q.** Which “soluble on expression in E. coli” value does the source give for “MAHHHHHHMSSAHKPTTQEAINFFKQYREKFQRSSSGGNSPSQNSVNASPQQNIVTQVQQVDVVPDLTTRSIIPMNRRNGTTTTRLDLLRKSPTNCSPCLVQEVEIKPLLPPLPFASVPKVTLVLDVDETLVHSTFQPSSDVVYDKVLLVPSEGKTYTVSVKYRPYLEDFLRFVSRRFEVVIFTASMRAYCDKLMDEIDPHGILGNLRLFREHCTFSERSYVKDLHRLGRDLRRVVILDNSPAAYSFQQRNAIPIKTWINDPKDRELFLLLPLLDRLAMCDSVYSELDPYNARGCDYL” here?
**A.** not soluble

**Q.** With “MVNRIQNPILPGFHPDPSIVRVGDDYYIATSTFEWFPGVRIHHSRDLKHWRFVSSPLTRTSQLDMKGNMNSGGIWAPCLSYHDGTFYLIYTDVKQWHGAFKDAHNYLVTAQNIEGPWSDPIYLNSSGFDPSLFHDDDGRKWLVNMIWDYRKGNHPFAGIILQEYSEAEQKLVGPVKNIYKGTDIQLTEGPHLYKKDGYYYLLVAEGGTEYEHAATLARSQSIDGPYETDPSYPLVTSTGQPELALQKAGHGSLVETQNGEWYLAHLCGRPLKGKYCTLGRETAIQKVNWTEDGWLRIEDGGNHPLREVTAPDLPEHPFEKEPELDDFDAPQLHHQWNTLRIPADPSWCSLEERPGHLRLRGMESLTSVHSQSLVARRQQSFHCEVETKLEYQPESFQHMAGLVIYYDTEDHVYLHVTWHEEKGKCLQIIQTKGGNYDELLASPIPLAEEKAVYLKGRIHRETMHLYFKQEGEAEWQPVGPTIDVTHMSDDSAKQVRFTGTFVGMATQDLSGTKKPADFDYFRYKELDQ” as the sequence, how does the “soluble on expression in E. coli” value read?
**A.** soluble

**Q.** For “SNAMIKRPIHMSHDFLAEVLDDESIVVDATMGNGNDTAFLAGLSKKVYAFDVQEQALGKTSQRLSDLGIENTELILDGHENLDHYVREPIRAAIFNLGYLPSADKSVITKPHTTLEAIEKILDRLEVGGRLAIMIYYGHDGGDMEKDAVLEYVIGLDQRVFTAMLYQPLNQINTPPFLVMLEKLQ”, which “soluble on expression in E. coli” value is on record?
**A.** soluble

**Q.** Which “soluble on expression in E. coli” value does the source give for “MKLKQLEGLLGDLEQFSNPKNRSVIGFDIDPESLETATLNAEELEVEIDFVQCDITKLELKGLIVDTVVMNPPFGTRKKGADMEFLSAAMKVASKAVYSLHKTSTRELRYDLPKLYKFHKRKEVDIAVDLWRFEPRQN” here?
**A.** soluble

**Q.** With “MSEDIFDAIIVGAGLAGSVAALVLAREGAQVLVIERGNSAGAKNVTGGRLYAHSLERIIPGFADQAPIERMITHEKLAFMTDNGAMTIDYCNGEDASASQVSYSVLRSKFDAWLMEQAEEAGAQLITGIRVDNVVQRDGKVVGVEADGDILEAKVVILADGVNSLLAEKLGMTKRVEASHVAVGVKELIELPKLVIEDRFQLQGNEGAACLFAGAPTDGLMGGGFLYTNETTLSLGLVCGLHHLKDAKKSVPQMLEDFKQHPAVAPLIAGGKLVEYAAHVVPEAGMNMQPELVGDGVLIAGDAAGMCMNLGFTIRGMDLAISAGEAAAKTVLSAMKRDDFSKQSLGEYRQHLDEGPMRDMRMYQKLPAFLDNPRMFTAYPEMAVNIARDLFTVDGSAPVPMRKKILRHAKKVGFINLMKDGLKGVTVL” as the sequence, how does the “soluble on expression in E. coli” value read?
**A.** not soluble

**Q.** Which “soluble on expression in E. coli” value does the source give for “SKNFNYTISFVGSTSNNKFVSFSNQFYEGPKYYWMSNFPLYPGNPGVLQRIEEGERIGNFYTFQYAGLDDNGGWLIYSKDGEVIPIDKGTDEDKRVVGNGLPKFTMSVTHTFRCKNLDLNLYFRGNLGYQIYDVHDLYYGLQDAAPNTNVLESAYKENRKITTGKNVHSSYFVHNGDFMKLDVATLGYTWNINNKWVEKARFYITGRNLFTISGYHRGLDKDAYCVNGMEPGLPYSKNGYYPSSRQFLFGIQLNF” here?
**A.** not soluble

**Q.** With “KDRSIIAMGAWLEVLSEEKDGNRLARHHEHGKIWKKPTRHEDIADFFPFGNPIHNNTMIMRRSVIDGGLRYNTERDWAEDYQFWYDVSKLGRLAYYPEALVKYRLHANQVSSKYSIRQHEIAQGIQKTARNDFLQSMGFKTRFDSLEYRQIKAVAYELLEKHLPEEDFERARRFLYQCFKRTDTLPAGAWLDFAADGRMRRLFTLRQYFGILHRLLKNR” as the sequence, how does the “soluble on expression in E. coli” value read?
**A.** not soluble

**Q.** For “SNAMPMTLDLQPGQRLARGVARHLRAHGFVSVEEFVPARGLRVDVMGLGPKGEIWVIECKSSRADFQADAKWQGYLEWCDRYFWAVDMEFPAELLPAESGLLIADAYDAEIVRMAPEQKLAPARRKVLIQKFATHAARRLQALRDPEGHGIFE”, which “soluble on expression in E. coli” value is on record?
**A.** soluble

**Q.** Which “soluble on expression in E. coli” value does the source give for “MAHHHHHHMENEALKEQEGEENKRILVLHKRYREGPFENRLRFECELEFVQSLSNIDYIKHLYENKYFSDKRFLNYLKYLNYWRTKPYIFYIHFPICLYVLEILNDGKIDEYFSKESSFNNFVYYLKLHWLFYSYQI” here?
**A.** not soluble

**Q.** With “MEPVTSSEREAELERELDLLRKELNIEQKMNSELKRLMIATLSDELQGQVEALTEDKVRLAHRVDEYMGKLMVEDEESDRLRIDRDVWKCKFLAQSIRCDELTSKNEYLLKTLVGIQQAVKTKNVTSDEISDFTQLDLQPLFHRSPCEERVRPITAKYTNLTIACCKNCMGRDIQLL” as the sequence, how does the “soluble on expression in E. coli” value read?
**A.** not soluble

**Q.** Which “soluble on expression in E. coli” value does the source give for “MSPGSVVVTGANRGIGLGLVQQLVKDKNIRHIIATARDVEKATELKSIKDSRVHVLPLTVTCDKSLDTFVSKVGEIVGSDGLSLLINNAGVLLSYGTNTEPNRAVIAEQLDVNTTSVVLLTQKLLPLLKNAASKESGDQLSVSRAAVITISSGLGSITDNTSGSAQFPVLAYRMSKAAINMFGRTLAVDLKDDNVLVVNFCPGWVQTNLGGKNAALTVEQSTAELISSFNKLDNSHNGRFFMRNLKPYEF” here?
**A.** soluble
